Data reported in the supplement of paper PMC10567573.

B1: DFFB (parent)
chain: TLVEAIKEQDGREVDWEYFYGLLF

Variants of: B1
Assay: protein stability index of a GFP-peptide fusion (GPS, HEK-293T) (PSI 1-6); higher = more stable
Settings: c terminus: a fixed tail appended
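Note: lentivirally expressed fusions sorted by FACS into six bins by GFP to DsRed ratio, PSI derived from sequencing read proportions per bin multiplied by bin number.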

Row | Variant | protein stability index
1 | TLVEDIKEQDGREVDWEYFYGLLF [A5D] | 2.54
2 | TLVEGIKEQDGREVDWEYFYGLLF [A5G] | 2.68
3 | TLVEWIKEQDGREVDWEYFYGLLF [A5W] | 2.84
4 | TLVEFIKEQDGREVDWEYFYGLLF [A5F] | 1.89
5 | TLVEMIKEQDGREVDWEYFYGLLF [A5M] | 2.35
6 | TLVETIKEQDGREVDWEYFYGLLF [A5T] | 2.88
7 | TLVESIKEQDGREVDWEYFYGLLF [A5S] | 2.15
8 | TLVECIKEQDGREVDWEYFYGLLF [A5C] | 1.95
9 | TLVEVIKEQDGREVDWEYFYGLLF [A5V] | 1.48
10 | TLVLAIKEQDGREVDWEYFYGLLF [E4L] | 1.93
11 | TLVTAIKEQDGREVDWEYFYGLLF [E4T] | 1.58
12 | TLVFAIKEQDGREVDWEYFYGLLF [E4F] | 2.38
13 | TLVQAIKEQDGREVDWEYFYGLLF [E4Q] | 1.97
14 | TLVIAIKEQDGREVDWEYFYGLLF [E4I] | 1.57
15 | TLVGAIKEQDGREVDWEYFYGLLF [E4G] | 2.26
16 | TLVAAIKEQDGREVDWEYFYGLLF [E4A] | 1.37
17 | TLVDAIKEQDGREVDWEYFYGLLF [E4D] | 1.68
18 | TLVSAIKEQDGREVDWEYFYGLLF [E4S] | 2.62
19 | TLVNAIKEQDGREVDWEYFYGLLF [E4N] | 2.11
20 | TLVWAIKEQDGREVDWEYFYGLLF [E4W] | 1.76
21 | TLVCAIKEQDGREVDWEYFYGLLF [E4C] | 2.92
22 | TLVKAIKEQDGREVDWEYFYGLLF [E4K] | 2.99
23 | TLVVAIKEQDGREVDWEYFYGLLF [E4V] | 2.87
24 | TLVPAIKEQDGREVDWEYFYGLLF [E4P] | 2.08

Row | Variant | protein stability index
25 | TLVHAIKEQDGREVDWEYFYGLLF [E4H] | 1.97
26 | WLVEAIKEQDGREVDWEYFYGLLF [T1W] | 1.65
27 | FLVEAIKEQDGREVDWEYFYGLLF [T1F] | 2.56
28 | SLVEAIKEQDGREVDWEYFYGLLF [T1S] | 1.41
29 | ELVEAIKEQDGREVDWEYFYGLLF [T1E] | 2.9
30 | YLVEAIKEQDGREVDWEYFYGLLF [T1Y] | 2.13
31 | VLVEAIKEQDGREVDWEYFYGLLF [T1V] | 3.13
32 | LLVEAIKEQDGREVDWEYFYGLLF [T1L] | 1.58
33 | QLVEAIKEQDGREVDWEYFYGLLF [T1Q] | 2.37
34 | ALVEAIKEQDGREVDWEYFYGLLF [T1A] | 2.32
35 | NLVEAIKEQDGREVDWEYFYGLLF [T1N] | 2.02
36 | RLVEAIKEQDGREVDWEYFYGLLF [T1R] | 1.59
37 | HLVEAIKEQDGREVDWEYFYGLLF [T1H] | 1.89
38 | DLVEAIKEQDGREVDWEYFYGLLF [T1D] | 2.24
39 | PLVEAIKEQDGREVDWEYFYGLLF [T1P] | 2.54
40 | MLVEAIKEQDGREVDWEYFYGLLF [T1M] | 1.31
41 | KLVEAIKEQDGREVDWEYFYGLLF [T1K] | 2.37
42 | GLVEAIKEQDGREVDWEYFYGLLF [T1G] | 2.05
43 | TLVEAIYEQDGREVDWEYFYGLLF [K7Y] | 3.52
44 | TLVEAIMEQDGREVDWEYFYGLLF [K7M] | 1.72
45 | TLVEAIIEQDGREVDWEYFYGLLF [K7I] | 2.28
46 | TLVEAISEQDGREVDWEYFYGLLF [K7S] | 1.31
47 | TLVEAICEQDGREVDWEYFYGLLF [K7C] | 1.98
48 | TLVEAITEQDGREVDWEYFYGLLF [K7T] | 2.19

Row | Variant | protein stability index
49 | TLVEAINEQDGREVDWEYFYGLLF [K7N] | 1.51
50 | TLVEAIVEQDGREVDWEYFYGLLF [K7V] | 1.64
51 | TLVEAIREQDGREVDWEYFYGLLF [K7R] | 1.03
52 | TLVEAIPEQDGREVDWEYFYGLLF [K7P] | 2.3
53 | TLVEAIQEQDGREVDWEYFYGLLF [K7Q] | 2.16
54 | TLVEAIEEQDGREVDWEYFYGLLF [K7E] | 2.34
55 | TLVEAIAEQDGREVDWEYFYGLLF [K7A] | 2.31
56 | TLVEAIFEQDGREVDWEYFYGLLF [K7F] | 2.99
57 | TLVEAIWEQDGREVDWEYFYGLLF [K7W] | 2.15
58 | TLVEAIDEQDGREVDWEYFYGLLF [K7D] | 1.58
59 | TLVEAIGEQDGREVDWEYFYGLLF [K7G] | 1.79
60 | TLVEAIHEQDGREVDWEYFYGLLF [K7H] | 1.9
61 | TFVEAIKEQDGREVDWEYFYGLLF [L2F] | 1.95
62 | THVEAIKEQDGREVDWEYFYGLLF [L2H] | 1.92
63 | TTVEAIKEQDGREVDWEYFYGLLF [L2T] | 2.2
64 | TWVEAIKEQDGREVDWEYFYGLLF [L2W] | 1.92
65 | TGVEAIKEQDGREVDWEYFYGLLF [L2G] | 2.5
66 | TRVEAIKEQDGREVDWEYFYGLLF [L2R] | 2.77
67 | TSVEAIKEQDGREVDWEYFYGLLF [L2S] | 3.15
68 | TQVEAIKEQDGREVDWEYFYGLLF [L2Q] | 1.41
69 | TIVEAIKEQDGREVDWEYFYGLLF [L2I] | 2.35
70 | TEVEAIKEQDGREVDWEYFYGLLF [L2E] | 3.08
71 | TVVEAIKEQDGREVDWEYFYGLLF [L2V] | 2.4
72 | TMVEAIKEQDGREVDWEYFYGLLF [L2M] | 2.15

Row | Variant | protein stability index
73 | TDVEAIKEQDGREVDWEYFYGLLF [L2D] | 2.17
74 | TCVEAIKEQDGREVDWEYFYGLLF [L2C] | 2.16
75 | TYVEAIKEQDGREVDWEYFYGLLF [L2Y] | 1.71
76 | TNVEAIKEQDGREVDWEYFYGLLF [L2N] | 2.31
77 | TPVEAIKEQDGREVDWEYFYGLLF [L2P] | 2.41
78 | TAVEAIKEQDGREVDWEYFYGLLF [L2A] | 3.03
79 | TLVEAEKEQDGREVDWEYFYGLLF [I6E] | 2.58
80 | TLVEAMKEQDGREVDWEYFYGLLF [I6M] | 1.94
81 | TLVEASKEQDGREVDWEYFYGLLF [I6S] | 1.89
82 | TLVEAQKEQDGREVDWEYFYGLLF [I6Q] | 2.32
83 | TLVEATKEQDGREVDWEYFYGLLF [I6T] | 2.01
84 | TLVEAFKEQDGREVDWEYFYGLLF [I6F] | 2.38
85 | TLVEARKEQDGREVDWEYFYGLLF [I6R] | 2.16
86 | TLVEANKEQDGREVDWEYFYGLLF [I6N] | 2.2
87 | TLVEAKKEQDGREVDWEYFYGLLF [I6K] | 2.2
88 | TLVEAYKEQDGREVDWEYFYGLLF [I6Y] | 1.81
89 | TLVEACKEQDGREVDWEYFYGLLF [I6C] | 2.24
90 | TLVEAPKEQDGREVDWEYFYGLLF [I6P] | 2.17
91 | TLVEAWKEQDGREVDWEYFYGLLF [I6W] | 1.38
92 | TLVEAAKEQDGREVDWEYFYGLLF [I6A] | 2.59
93 | TLVEAHKEQDGREVDWEYFYGLLF [I6H] | 2.58
94 | TLVEAVKEQDGREVDWEYFYGLLF [I6V] | 2.25
